Measurements: the supplement of paper PMC7877785
± gives the uncertainty stated by the source.

Assay: self-splicing fitness, log relative to wild type (ln ratio); higher = more splicing; Tetrahymena group I intron in knt gene, E. coli kanamycin selection, DiMSum; sequences stand for … in CUCUCU…GGAGGGAAAAGUUAUCAGGCAUGCACCUGGUAGCUAGUCUUUAAACCAAUAGAUUGCAUCGGUUUAAAAGGCAAGACCGUCAAAUUGCGGGAAAGGGGUCAACAGCCGUUCAGUACCAAGUCUCAGGGGAAACUUUGAGAUGGCCUUGCAAAGGGUAUGGUAAUAAGCUGACGGACAUGGUCCUAACCACGCAGCCAAGUCCUAAGUCAACAGAUCUUCUGUUGAUAUGGAUGCAGUUCACAGACUAAAUGUCGGUCGGGGAAGAUGUAUUCUUCUCAUAAGAUAUAGUCGGACCUCUCCUUAAUGGGAGCUAGCGGAUGAAGUGAUGCAACACUGGAGCCGCUGGGAACUAAUUUGUAUGCGAAAGUAUAUUGAUUAGUUUUGGAGUACUCGUGGUCG
Outline: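 DiMSum derived fitness as the error-weighted combination of fold changes across replicates, kanamycin versus no kanamycin, normalised to wild type. E. coli BL21(DE3) held the library, which randomised all eight P1ex-region intron nucleotides within the knt kanamycin-resistance gene on pET-22b(+). Six replicate transformations grew overnight at 37°C or 30°C on LB agar with or without 25 μg/mL kanamycin, also containing 100 μg/mL carbenicillin, 50 μM IPTG and 0.2% rhamnose, and pooled colonies were amplicon-sequenced on an Illumina HiSeq 2500.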

Row | Sequence | self-splicing fitness (ln) (30 °C) | self-splicing fitness (ln) (37 °C)
1 | AUGUAGCAAUAUUACGUCAU | -1.81 ± 0.059 | -0.896 ± 0.069
2 | AUGUAGCAAUAUUACGUGCG | -1.8 ± 0.09 | -0.122 ± 0.097
3 | AUGUAGCAAUAUUACGUGGA | -1.58 ± 0.22 | -3.15 ± 0.24
4 | AUGUAGCAAUAUUACGUGGC | -4.11 ± 0.46 | -2.84 ± 0.25
5 | AUGUAGCAAUAUUACGUGUU | -2.4 ± 0.12 | -1.08 ± 0.14
6 | AUGUAGCAAUAUUACGUUCU | -1.05 ± 0.082 | -0.469 ± 0.094
7 | AUGUAGCAAUAUUACGUUUU | -2.64 ± 0.074 | -1.8 ± 0.1
8 | AUUAAGCAAUAUUACGAGGG | – | -2.96 ± 0.36
9 | AUUAAGCAAUAUUACGAUCC | -0.418 ± 0.11 | -0.106 ± 0.19
10 | AUUAAGCAAUAUUACGCCCA | -1.11 ± 0.19 | -0.42 ± 0.29
11 | AUUAAGCAAUAUUACGCGGU | -3.93 ± 0.47 | -3.09 ± 0.35
12 | AUUAAGCAAUAUUACGCUGC | -3.87 ± 0.27 | -1.98 ± 0.22
13 | AUUAAGCAAUAUUACGGAAC | -3.44 ± 0.2 | -0.822 ± 0.13
14 | AUUAAGCAAUAUUACGGAGA | -2.53 ± 0.19 | -3.25 ± 0.32
15 | AUUAAGCAAUAUUACGGAUC | -1.85 ± 0.16 | -0.479 ± 0.18
16 | AUUAAGCAAUAUUACGGCUA | -0.106 ± 0.11 | -0.122 ± 0.11
17 | AUUAAGCAAUAUUACGGGUA | -2.2 ± 0.17 | -0.0398 ± 0.12
18 | AUUAAGCAAUAUUACGUCGA | -1 ± 0.1 | -0.855 ± 0.13
19 | AUUAAGCAAUAUUACGUCGU | -1.43 ± 0.094 | -0.383 ± 0.12
20 | AUUAAGCAAUAUUACGUGGG | -3.45 ± 0.17 | -2.44 ± 0.16
21 | AUUAAGCAAUAUUACGUUAA | -2.52 ± 0.15 | -1.35 ± 0.12
22 | AUUAAGCAAUAUUACGUUGA | -2.67 ± 0.24 | -1.95 ± 0.16
23 | AUUCAGCAAUAUUACGAAGC | -3.62 ± 0.27 | -1.32 ± 0.17
24 | AUUCAGCAAUAUUACGACCC | 0.119 ± 0.42 | –
25 | AUUCAGCAAUAUUACGACGU | -0.0483 ± 0.06 | 0.146 ± 0.068
26 | AUUCAGCAAUAUUACGAGAA | -1.51 ± 0.18 | -1.74 ± 0.18
27 | AUUCAGCAAUAUUACGCACG | -0.783 ± 0.16 | -0.413 ± 0.16

Row | Sequence | self-splicing fitness (ln) (30 °C) | self-splicing fitness (ln) (37 °C)
28 | AUUCAGCAAUAUUACGCGAG | -0.677 ± 0.065 | -0.126 ± 0.079
29 | AUUCAGCAAUAUUACGCUCU | -0.186 ± 0.094 | 0.683 ± 0.12
30 | AUUCAGCAAUAUUACGCUGU | -2.87 ± 0.21 | -1.09 ± 0.18
31 | AUUCAGCAAUAUUACGCUUG | -0.971 ± 0.083 | -0.265 ± 0.093
32 | AUUCAGCAAUAUUACGGAGA | -1.48 ± 0.12 | -0.618 ± 0.11
33 | AUUCAGCAAUAUUACGGAGC | -2.82 ± 0.23 | -1.71 ± 0.19
34 | AUUCAGCAAUAUUACGGGAG | -0.828 ± 0.051 | -0.443 ± 0.063
35 | AUUCAGCAAUAUUACGGGCG | -0.695 ± 0.1 | -0.0814 ± 0.12
36 | AUUCAGCAAUAUUACGGUGU | -0.571 ± 0.042 | -0.106 ± 0.055
37 | AUUCAGCAAUAUUACGUAUC | -3.62 ± 0.26 | -1.04 ± 0.16
38 | AUUCAGCAAUAUUACGUCCU | -1.05 ± 0.066 | -0.0115 ± 0.11
39 | AUUCAGCAAUAUUACGUCGA | -0.991 ± 0.085 | -0.503 ± 0.097
40 | AUUCAGCAAUAUUACGUGGG | -2.63 ± 0.11 | -1.87 ± 0.1
41 | AUUCAGCAAUAUUACGUUCC | -1.54 ± 0.14 | -1.5 ± 0.21
42 | AUUCAGCAAUAUUACGUUGC | -2.72 ± 0.23 | -2.52 ± 0.3
43 | AUUGAGCAAUAUUACGAAUC | -2.93 ± 0.4 | –
44 | AUUGAGCAAUAUUACGAGGG | -2.87 ± 0.14 | -2.85 ± 0.29
45 | AUUGAGCAAUAUUACGAUUU | -1.11 ± 0.09 | -0.383 ± 0.11
46 | AUUGAGCAAUAUUACGCACG | -3.07 ± 0.37 | –
47 | AUUGAGCAAUAUUACGCAGA | – | -2.45 ± 0.41
48 | AUUGAGCAAUAUUACGCAUG | -4 ± 0.32 | -0.903 ± 0.26
49 | AUUGAGCAAUAUUACGCAUU | -2.64 ± 0.23 | -1.49 ± 0.18
50 | AUUGAGCAAUAUUACGCUAG | – | -2.2 ± 0.22
51 | AUUGAGCAAUAUUACGCUCU | -3.63 ± 0.24 | -2.27 ± 0.17
52 | AUUGAGCAAUAUUACGGACG | -2.11 ± 0.3 | -1.96 ± 0.32
53 | AUUGAGCAAUAUUACGGCGU | -0.734 ± 0.11 | 0.573 ± 0.17
54 | AUUGAGCAAUAUUACGGGAC | -3.28 ± 0.42 | –

Row | Sequence | self-splicing fitness (ln) (30 °C) | self-splicing fitness (ln) (37 °C)
55 | AUUGAGCAAUAUUACGGGGA | -2.32 ± 0.24 | -2.49 ± 0.28
56 | AUUGAGCAAUAUUACGGGGG | -4.39 ± 0.46 | -3.19 ± 0.31
57 | AUUGAGCAAUAUUACGGUCC | – | -1.58 ± 0.22
58 | AUUGAGCAAUAUUACGUAAG | -2.78 ± 0.13 | -1.82 ± 0.13
59 | AUUGAGCAAUAUUACGUAGC | -3.31 ± 0.4 | -2.32 ± 0.31
60 | AUUGAGCAAUAUUACGUCUC | – | -2.21 ± 0.42
61 | AUUGAGCAAUAUUACGUGAC | – | -1.61 ± 0.45
62 | AUUGAGCAAUAUUACGUGUA | -3.52 ± 0.21 | -2.69 ± 0.24
63 | AUUGAGCAAUAUUACGUUAC | – | -1.76 ± 0.3
64 | AUUUAGCAAUAUUACGAAUA | -2.16 ± 0.33 | -0.575 ± 0.27
65 | AUUUAGCAAUAUUACGACAU | 0.163 ± 0.014 | 0.28 ± 0.033
66 | AUUUAGCAAUAUUACGACGU | 0.023 ± 0.064 | 0.539 ± 0.077
67 | AUUUAGCAAUAUUACGAGAA | -2.09 ± 0.32 | -1.2 ± 0.28
68 | AUUUAGCAAUAUUACGAGCC | -1.74 ± 0.46 | –
69 | AUUUAGCAAUAUUACGAGUG | -2.59 ± 0.18 | -0.743 ± 0.18
70 | AUUUAGCAAUAUUACGAUAA | -1.53 ± 0.2 | -0.502 ± 0.39
71 | AUUUAGCAAUAUUACGAUUG | -2.72 ± 0.21 | -2.05 ± 0.27
72 | AUUUAGCAAUAUUACGCAGA | -2.07 ± 0.3 | -1.07 ± 0.19
73 | AUUUAGCAAUAUUACGCCCG | -1.48 ± 0.24 | -1.15 ± 0.28
74 | AUUUAGCAAUAUUACGCCUU | -0.196 ± 0.092 | -0.0916 ± 0.12
75 | AUUUAGCAAUAUUACGCUCA | -1.14 ± 0.18 | 0.0165 ± 0.19
76 | AUUUAGCAAUAUUACGCUGU | -1.33 ± 0.14 | -1.01 ± 0.16
77 | AUUUAGCAAUAUUACGGACA | -1.34 ± 0.27 | -0.739 ± 0.27
78 | AUUUAGCAAUAUUACGGACG | -2.26 ± 0.24 | -1.75 ± 0.24
79 | AUUUAGCAAUAUUACGGACU | 0.0925 ± 0.11 | 0.805 ± 0.13
